Here are results for one molecule from article PMC5374410, “Identification of a Potent Allosteric Inhibitor of Human Protein Kinase CK2 by Bacterial Surface Display Library Screening” (Pharmaceuticals, 2017).

The target of the assay is CK2β^1–193-pAzF coupled to fluorescein (human) (UniProt P67870). In words: MST; B2 titrated (7.6 nM to 125 or 250 µM) to 100 nM fluorophore-labelled CK2α-DBCO-Sulfo-Cy5 or CK2β^1-193-Flu; 50 mM Tris/HCl pH 7.5, 25 mM NaCl, 20 mM MgCl2, Tween-20, DMSO; 37 °C, MST power 60%; Monolith NT.115; three independent measurements.

One may read the Kd as the constant that tells how readily two partners part at equilibrium. A higher Kd goes with a looser complex. For DCRGLIVMIKLH [peptide B2 (free synthetic peptide)], the Kd is above 100 µM.
